For the test, the target named is mNeonGreen-tagged T-bet DNA binding domain (aa 135-326) Q160A (mouse) (UniProt Q9JKD8). Kind of test: FRET or BRET; flow-cytometric FRET in HEK293T cells co-transfected with 730 ng of each vector for mTagBFP- and mNeonGreen-tagged proteins; read 32 hours after transfection; 405 nm laser line, 530/30 bandpass filter; DFRET efficiency. (In general: BRET reads energy transfer from a luciferase to a nearby fluorophore.)
Sequence of mNeonGreen-tagged T-bet DNA binding domain (aa 135-326) Q160A (mouse) (Q9JKD8 135-326, stated change not applied): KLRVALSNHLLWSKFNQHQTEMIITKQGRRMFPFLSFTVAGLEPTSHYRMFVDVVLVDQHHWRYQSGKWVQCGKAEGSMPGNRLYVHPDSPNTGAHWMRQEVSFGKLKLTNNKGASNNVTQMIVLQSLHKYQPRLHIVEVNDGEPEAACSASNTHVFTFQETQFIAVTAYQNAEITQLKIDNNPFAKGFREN

Sequence of mTagBFP-tagged GATA3 DNA binding domain (aa 259-369) (P23772 259-369): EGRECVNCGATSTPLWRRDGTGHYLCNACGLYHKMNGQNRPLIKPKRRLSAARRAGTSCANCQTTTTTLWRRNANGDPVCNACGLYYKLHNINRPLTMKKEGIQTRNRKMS

On to “mTagBFP-tagged GATA3 DNA binding domain (aa 259-369) (from UniProt P23772 259-369) (domain or fragment)”, for which the reduction of the FRET interaction signal against WT T-bet DBD is 50%.

These data come from PMC9071441.
